From US20260347496 (published 2026)

B1: huG14-221 (antibody, V domains shown)
VH: EVQLVESGGGLVKPGGSLRLSCAASGLTFSNYWMNWVRQAPGKGLEWVALIRLYSDNYAIHYAESVKGRFTISRDDSKSTVYLQMNSLKTEDTAVYYCTTGTDNWGQGTTVTVSS
VL: DVVMTQSPLSLPVTPGRPASISCKSSQSLLYSNGKTYLNWLLQKPGQSPQRLIYLVSKLDSGVPDRFSGSGSGTDFTLKISRVEAEDLGVYYCIQGTYFPYTFGQGTKLEIK
B2: huG14-218 (antibody, V domains shown)
VH: EVQLVESGGGLVKPGGSLRLSCAASGLTFSNYWMNWVRQAPGKGLEWVALIRLYSDNYAIHYAESVKGRFTISRDDSKSTVYLQMNSLKTEDTAVYYCTTGTDNWGQGTTVTVSS
VL: DVVMTQSPLSLPVTPGRPASISCKSSHSLLYSNGETYLNWLLQKPGQSPQRLIYLVSKLDSGVPDRFSGSGSGTDFTLKISRVEAEDLGVYYCIQGTYFPYTFGQGTKLEIK
B3: huG14-231 (antibody, V domains shown)
VH: EVQLVESGGGLVKPGGSLRLSCAASGLTFSNYWGNWVRQAPGKGLEWVALIRLYSDNYAIHYAESVKGRFTISRDDSKSTVYLQMNSLKTEDTAVYYCTTGTDNWGQGTTVTVSS
VL: DVVMTQSPLSLPVTPGRPASISCKSSHSLLYSNGRTYLNWLLQKPGQSPQRLIYLVSKLDSGVPDRFSGSGSGTDFTLKISRVEAEDLGVYYCIQGTYFPYTFGQGTKLEIK
B4: huG14-227 (antibody, V domains shown)
VH: EVQLVESGGGLVKPGGSLRLSCAASGLTFSNYWGNWVRQAPGKGLEWVALIRLYSDNYAIHYAESVKGRFTISRDDSKSTVYLQMNSLKTEDTAVYYCTTGTDNWGQGTTVTVSS
VL: DVVMTQSPLSLPVTPGRPASISCKSSHSLLYSNGRTYLNWLLQKPGQSPQRLIYLVSKLDSGVPDRFSGSGSGTDFTLKISRVEAEDLGVYYCVQGTYFPYTFGQGTKLEIK
B5: huG14-215 (antibody, V domains shown)
VH: EVQLVESGGGLVKPGGSLRLSCAASGLTFSNYWGNWVRQAPGKGLEWVALIRLYSDNYAIHYAESVKGRFTISRDDSKSTVYLQMNSLKTEDTAVYYCTTGTDYWGQGTTVTVSS
VL: DVVMTQSPLSLPVTPGRPASISCKSSQSLLYSNGRTYLNWLLQKPGQSPQRLIYLVSKLDSGVPDRFSGSGSGTDFTLKISRVEAEDLGVYYCIQGTYFPYTFGQGTKLEIK
B6: huG14-224 (antibody, V domains shown)
VH: EVQLVESGGGLVKPGGSLRLSCAASGLTFSNYWMNWVRQAPGKGLEWVALIRLYSDNYAIHYAESVKGRFTISRDDSKSTVYLQMNSLKTEDTAVYYCTTGTDNWGQGTTVTVSS
VL: DVVMTQSPLSLPVTPGRPASISCKSSHSLLYSNGRTYLNWLLQKPGQSPQRLIYLVSKLDSGVPDRFSGSGSGTDFTLKISRVEAEDLGVYYCIQGTYFPYTFGQGTKLEIK
B7: huG14-211 (antibody, V domains shown)
VH: EVQLVESGGGLVKPGGSLRLSCAASGLTFSNYWGNWVRQAPGKGLEWVALIRLYSDNYAIHYAESVKGRFTISRDDSKSTVYLQMNSLKTEDTAVYYCTTGTDYWGQGTTVTVSS
VL: DVVMTQSPLSLPVTPGRPASISCKSSHSLLYSNGETYLNWLLQKPGQSPQRLIYLVSKLDSGVPDRFSGSGSGTDFTLKISRVEAEDLGVYYCIQGTYFPYTFGQGTKLEIK
B8: huG14-233 (antibody, V domains shown)
VH: EVQLVESGGGLVKPGGSLRLSCAASGLTFSNYWGNWVRQAPGKGLEWVALIRLYSDNYAIHYAESVKGRFTISRDDSKSTVYLQMNSLKTEDTAVYYCTTGTDNWGQGTTVTVSS
VL: DVVMTQSPLRLPVTPGRPASISCKSSHSLLYSNGRTYLNWLLQKPGQSPQRLIYLVSKLDSGVPDRFSGSGSGTDFTLKISRVEAEDLGVYYCIQGTYFPYTFGIGTKLEIK
B9: huG14-223 (antibody, V domains shown)
VH: EVQLVESGGGLVKPGGSLRLSCAASGLTFSNYWMNWVRQAPGKGLEWVALIRLYSDNYAIHYAESVKGRFTISRDDSKSTVYLQMNSLKTEDTAVYYCTTGTDNWGQGTTVTVSS
VL: DVVMTQSPLSLPVTPGRPASISCKSSHSLLYSNGKTYLNWLLQKPGQSPQRLIYLVSKLDSGVPDRFSGSGSGTDFTLKISRVEAEDLGVYYCIQGTYFPYTFGQGTKLEIK
B10: huG14-206 (antibody, V domains shown)
VH: EVQLVESGGGLVKPGGSLRLSCAASGLTFSNYWMNWVRQAPGKGLEWVALIRLYSDNYAIHYAESVKGRFTISRDDSKSTVYLQMNSLKTEDTAVYYCTTGTDYWGQGTTVTVSS
VL: DVVMTQSPLSLPVTPGRPASISCKSSHSLLYSNGRTYLNWLLQKPGQSPQRLIYLVSKLDSGVPDRFSGSGSGTDFTLKISRVEAEDLGVYYCVQGTYFPYTFGQGTKLEIK
B11: huG14-214 (antibody, V domains shown)
VH: EVQLVESGGGLVKPGGSLRLSCAASGLTFSNYWGNWVRQAPGKGLEWVALIRLYSDNYAIHYAESVKGRFTISRDDSKSTVYLQMNSLKTEDTAVYYCTTGTDYWGQGTTVTVSS
VL: DVVMTQSPLSLPVTPGRPASISCKSSQSLLYSNGKTYLNWLLQKPGQSPQRLIYLVSKLDSGVPDRFSGSGSGTDFTLKISRVEAEDLGVYYCIQGTYFPYTFGQGTKLEIK
B12: huG14-220 (antibody, V domains shown)
VH: EVQLVESGGGLVKPGGSLRLSCAASGLTFSNYWMNWVRQAPGKGLEWVALIRLYSDNYAIHYAESVKGRFTISRDDSKSTVYLQMNSLKTEDTAVYYCTTGTDNWGQGTTVTVSS
VL: DVVMTQSPLSLPVTPGRPASISCKSSHSLLYSNGRTYLNWLLQKPGQSPQRLIYLVSKLDSGVPDRFSGSGSGTDFTLKISRVEAEDLGVYYCVQGTYFPYTFGQGTKLEIK
B13: huG14-207 (antibody, V domains shown)
VH: EVQLVESGGGLVKPGGSLRLSCAASGLTFSNYWMNWVRQAPGKGLEWVALIRLYSDNYAIHYAESVKGRFTISRDDSKSTVYLQMNSLKTEDTAVYYCTTGTDYWGQGTTVTVSS
VL: DVVMTQSPLSLPVTPGRPASISCKSSQSLLYSNGKTYLNWLLQKPGQSPQRLIYLVSKLDSGVPDRFSGSGSGTDFTLKISRVEAEDLGVYYCIQGTYFPYTFGQGTKLEIK
B14: huG14-226 (antibody, V domains shown)
VH: EVQLVESGGGLVKPGGSLRLSCAASGLTFSNYWGNWVRQAPGKGLEWVALIRLYSDNYAIHYAESVKGRFTISRDDSKSTVYLQMNSLKTEDTAVYYCTTGTDNWGQGTTVTVSS
VL: DVVMTQSPLSLPVTPGRPASISCKSSHSLLYSNGKTYLNWLLQKPGQSPQRLIYLVSKLDSGVPDRFSGSGSGTDFTLKISRVEAEDLGVYYCVQGTYFPYTFGQGTKLEIK
B15: huG14-212 (antibody, V domains shown)
VH: EVQLVESGGGLVKPGGSLRLSCAASGLTFSNYWGNWVRQAPGKGLEWVALIRLYSDNYAIHYAESVKGRFTISRDDSKSTVYLQMNSLKTEDTAVYYCTTGTDYWGQGTTVTVSS
VL: DVVMTQSPLSLPVTPGRPASISCKSSHSLLYSNGKTYLNWLLQKPGQSPQRLIYLVSKLDSGVPDRFSGSGSGTDFTLKISRVEAEDLGVYYCVQGTYFPYTFGQGTKLEIK
B16: huG14-222 (antibody, V domains shown)
VH: EVQLVESGGGLVKPGGSLRLSCAASGLTFSNYWMNWVRQAPGKGLEWVALIRLYSDNYAIHYAESVKGRFTISRDDSKSTVYLQMNSLKTEDTAVYYCTTGTDNWGQGTTVTVSS
VL: DVVMTQSPLSLPVTPGRPASISCKSSQSLLYSNGRTYLNWLLQKPGQSPQRLIYLVSKLDSGVPDRFSGSGSGTDFTLKISRVEAEDLGVYYCIQGTYFPYTFGQGTKLEIK

These binders were tested against CD24(27-56aa)-GST NEOX-4 (human) (assay: ELISA).
Chain of CD24(27-56aa)-GST NEOX-4 (human) (chain, as listed by the source): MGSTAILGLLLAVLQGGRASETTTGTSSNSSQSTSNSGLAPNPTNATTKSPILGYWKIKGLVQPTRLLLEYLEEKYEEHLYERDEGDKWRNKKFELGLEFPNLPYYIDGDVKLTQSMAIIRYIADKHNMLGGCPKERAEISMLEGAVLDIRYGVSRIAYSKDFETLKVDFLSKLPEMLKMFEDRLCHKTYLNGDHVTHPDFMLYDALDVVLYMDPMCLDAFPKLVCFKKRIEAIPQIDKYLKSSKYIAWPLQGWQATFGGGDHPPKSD
An EC50 of 5.93 ng/mL was found for B1 in this work. An EC50 of 4.71 ng/mL was found for B2 in this work. An EC50 of 8.25 ng/mL was found for B3 in this work. An EC50 of 7.63 ng/mL was found for B4 in this work. An EC50 of 3.41 ng/mL was found for B5 in this work. An EC50 of 6.18 ng/mL was found for B6 in this work. An EC50 of 3.34 ng/mL was found for B7 in this work. An EC50 of 8.41 ng/mL was found for B8 in this work. An EC50 of 4.82 ng/mL was found for B9 in this work. An EC50 of 4.92 ng/mL was found for B10 in this work. An EC50 of 3.06 ng/mL was found for B11 in this work. An EC50 of 5.17 ng/mL was found for B12 in this work. An EC50 of 5.71 ng/mL was found for B13 in this work. An EC50 of 10.7 ng/mL was found for B14 in this work. An EC50 of 3.19 ng/mL was found for B15 in this work. An EC50 of 4.91 ng/mL was found for B16 in this work.
